Source: US20150111836A1, “CELLULAR APOBEC3 PROTEINS AND MODULATORS THEREOF FOR REGULATING DNA REPAIR PROCESSES AND TREATING PROLIFERATIVE DISEASES” (priority 2012, published 2015)
Where a SMILES comes first, the peptide text is derived from it. The star is where a group is joined. Cbz = O=C(OCc1ccccc1)*; CH2F = FC*

Assays:
H9 cells [1] = test: Cell cycle analysis following IR; format: cell-based, human; conditions: H9-shA3G cells, 4 Gy, 20 hours, FIG. 8J
Procedure: PBMC, H9 or puromycin-resistant H9-shRNA cells were irradiated (4 Gy) or mock-irradiated. Following 20 h incubation at 37° C., cells were fixed with methanol for 1 h at −20° C., washed with phosphate buffered saline (PBS), treated with RNase A (50 μg ml ^−1) and stained with PI (5 μg ml^−1). The total cellular DNA content was determined by flow cytometry using FACScan. Cell cycle data were analyzed by the CellQuest Pro software and include 10,000 events gated on singlet cells.

A3G [2] = test: shRNA-mediated knockdown of A3G expression in H9 cells; format: cell-based, human; conditions: Western blot, FIG. 8F
Procedure: (§1) For short hairpin (sh) RNA expression, the following puromycin resistance-encoding vectors were used: A3G-specific pLKO.1.shA3G (TRCN0000052188, clone NM_021822.1-398s1 c1; Sigma-Aldrich), having the nucleic acid sequence 5′-CCGG-[…]-CTCGAG-[…]-TTTTTG-3′, as denoted by SEQ ID NO. 92, and the unrelated control cyprinid herpes virus 3 (CyHV3)-specific pLKO.1.shCtr1. […]. Culture supernatants were collected 48 h post transfection, centrifuged for 10 min at 4,000 rpm to remove cell debris and then for 1 h at 35,000 rpm using a swing SW-41 rotor (Beckman). H9 cells were transduced with the concentrated vectors by spinoculation for 1 h at 1,000 rpm and selected with puromycin (1 μg ml^−1) for 3-10 days post transduction.
Transfected or infected cells were harvested, washed once in PBS, re-suspended in SDS-gel loading buffer and boiled for 10 min. Samples of 5×10^4 cells were analyzed by SDS-12% polyacrylamide gel electrophoresis (SDS-PAGE), followed by transfer of the proteins to polyvinylidene fluoride (PVDF) membrane. HIV-1 proteins were detected by using rabbit anti-Vif and monoclonal anti-Ca-p24 antibodies. A3G protein was identified by rabbit polyclonal anti-A3G.

H9 cells [3] = test: γ-H2AX / RPA foci after IR in A3G knockdown H9 cells; format: cell-based, human
Procedure: as §1
(§2) Cells were irradiated by exposure to a ^60Co source producing 1 Gy sec^−1 γ-radiation, or mock-irradiated. Following incubation at 37° C., cells were fixed, attached to glass slides by cytospin, permeabilized with detergent and blocked with 10% normal goat serum. Cells were then incubated with A3G-specific rabbit polyclonal antibody, γ-H2AX-specific monoclonal antibody, or RPA32-specific monoclonal antibody, followed by incubation with goat anti-rabbit Cy-5-conjugated antibody, goat anti-mouse Cy-2-conjugated antibody and DAPI. Slides were mounted and examined by Zeiss LSM 710 confocal microscope. Data were collected sequentially using a ×63 objective with 7-fold averaging at a resolution of […], Z-sections were obtained using an optical slice of less than 1 μm. Data were analyzed with the Zen 2009.

A3G [4] = molecular target: T1, A3G (Homo sapiens, UniProt Q9HC16); format: biochemical; conditions: for inhibition of A3G deaminase activity: peptide at 1 μM, FIG. 15B; for inhibition of A3G mediated deamination by A3G-derived peptides: 1-100 μM, FIG. 19B
T1 construct: Myc (C); His6 (C); made in house; host or cells: 293T cells (human embryonic kidney), transfected with pcDNA3.1-A3GMyc-His6, Ni-NTA purified
Procedure: Deaminase activity of purified enzyme and virion-associated A3G protein was examined as previously described. Briefly, A3G deamination reactions were performed in a total volume of 10 μl in 25 mM Tris, pH 7.0, and 0.01-1 fmol single-stranded (ss) deoxyoligonucleotide substrate at 37° C. The reaction was terminated by heating to 95° C. for 5 min. One μl of the reaction mixture was used for PCR amplification performed in 20 μl buffer S, using the following program: 1 cycle at 95° C. for 3 min, followed by 30 cycles of annealing at 61° C. for 30 s and denaturing at 94° C. for 30 s. Aliquots of the PCR products (10 μl) were incubated with Eco147I restriction enzyme for 1 h at 37° C. Completion of the restriction reaction was verified by using positive-control substrate containing CCU instead of CCC. Restriction-reaction products were loaded onto 14% gels and separated by PAGE. Gels were stained with SYBR gold nucleic acid stain diluted 1:10,000 in 0.5× Tris-Borate-EDTA buffer (TBE, pH 7.8), visualized by UV light (312 nm), captured by an Olympus C-5050 charge-coupled device (CCD) camera and analyzed by optical density (OD) scan using the TINA2.0 densitometry software. Assessment of A3G entrapped in virions was carried out with concentrated viruses stocks of 3-5 μg of p24/μl) suspended in PBS containing Triton X-100 at final concentration of 0.1% (vv) and 50 μg/ml RNase A (Sigma-Aldrich). Deamination reactions were incubated for 1 h at 37° C.
A panel of 46 HIV-1 Vif-derived 15-mer peptides (obtained through the NIH AIDS Research and Reference Reagent Program) were screened for inhibition of purified A3G-His6 catalytic activity in a standard cytidine deamination assay. […] A fluorescein-conjugated peptide (kindly provided by Dr. Assaf Friedler) was used to assess the peptide uptake by H9 cells.

H9 cells [5] = test: DSB repair (γ-H2AX staining) in irradiated H9 cells pre-incubated with Vif peptides; format: cell-based, human; conditions: 2 h pre-incubation with 100 μM peptide, 4 Gy IR, stained after 8 h
Procedure: as §2
A panel of 46 HIV-1 Vif-derived 15-mer peptides (obtained through the NIH AIDS Research and Reference Reagent Program) were screened for inhibition of purified A3G-His6 catalytic activity in a standard cytidine deamination assay. The inhibitory peptide Vif25-39 corresponds to amino acids 25-39 in HIV-1 HXBII Vif. A fluorescein-conjugated peptide (kindly provided by Dr. Assaf Friedler) was used to assess the peptide uptake by H9 cells. […]

T1 sequence (Q9HC16 whole entry): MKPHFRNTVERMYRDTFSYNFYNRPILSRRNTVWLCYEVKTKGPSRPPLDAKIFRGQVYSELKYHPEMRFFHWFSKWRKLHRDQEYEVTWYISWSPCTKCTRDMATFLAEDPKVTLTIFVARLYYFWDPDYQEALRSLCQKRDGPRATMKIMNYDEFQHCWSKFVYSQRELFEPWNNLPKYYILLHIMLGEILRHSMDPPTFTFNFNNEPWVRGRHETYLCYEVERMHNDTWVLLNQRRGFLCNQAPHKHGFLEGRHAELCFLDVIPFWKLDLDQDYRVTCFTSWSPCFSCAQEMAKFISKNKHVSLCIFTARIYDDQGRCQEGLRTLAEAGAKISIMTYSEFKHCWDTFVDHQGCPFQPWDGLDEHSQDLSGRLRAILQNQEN

5′-CCGG-GCCAGGTGTATTCCGAACTTA-CTCGAG-TAAGTTCGGAATACACCTGGC-TTTTTG-3′ (DNA CCGGGCCAGGTGTATTCCGAACTTACTCGAGTAAGTTCGGAATACACCTGGCTTTTTG; expressed or natural sequence) [shA3G, A3G-specific shRNA vector TRCN0000052188]
G2M arrest following IR (H9 cells [1]): did not undergo G2M arrest
reduction of A3G expression compared to H9-shCtr1 cells (A3G [2]): 70-80%
RPA recruitment to damage-induced foci following IR (H9 cells [3]; H9-shA3G cells, 4 Gy, 2 h, FIG. 10A): did not form such foci
γ-H2AX foci in the hours following IR (H9 cells [3]; H9-shA3G cells, 4 Gy, up to 8 hours, FIG. 8G): did not decrease

COC(=O)C[C@H](NC(=O)[C@H](C)NC(=O)[C@@H](NC(=O)OCc1ccccc1)C(C)C)C(=O)CF [z-VAD-fmk, reference compound] (Cbz-Val-Ala-Asp(OMe)-CH2F)
DSB incidence in the presence of caspase inhibitor (H9 cells [3]; 20 μM, 1 hour pre-incubation, γ-H2AX 6 hours after IR, FIG. 8H): comparable with cells treated with mock

DCFSESAIRNAILGH (Viral - Vif peptide) [Vif113-127]
inhibition of A3G deaminase activity (A3G [4]): inhibited

DLADQLIHLYYFDCF (Viral - Vif peptide) [Vif101-115]
inhibition of A3G deaminase activity (A3G [4]): inhibited

GWFYRHHYESTHPRI (Viral - Vif peptide) [Vif37-51]
inhibition of A3G deaminase activity (A3G [4]): inhibited

IHLYYFDCF (Viral - Vif peptide) [SEQ ID NO. 71]
inhibition of A3G mediated deamination by short Vif- and A3F-derived peptides (A3G [4]; 0.001 to 10 μM, FIG. 19A): distinct inhibitory pattern

IVWQVDRMRIRTWKS [Vif9-23]
inhibition of A3G deaminase activity (A3G [4]): inhibited

RMHNDTWVLLNQRRG (listed as Homo sapiens) [SEQ ID NO. 84]
inhibition of A3G mediated deamination by A3G-derived peptides (A3G [4]): marked inhibitory effect

WRKKRYSTQVDPDLA (Viral - Vif peptide) [Vif89-103, control peptide]
inhibition of A3G-mediated deamination (A3G [4]; peptide at 100 μM): did not inhibit
cells containing DSBs (H9 cells [5]): < 8%

WVRGRHETYLCYEVE (listed as Homo sapiens) [SEQ ID NO. 83]
inhibition of A3G mediated deamination by A3G-derived peptides (A3G [4]): marked inhibitory effect
